System: MS2 coat protein
Assay: apparent KD of MS2 coat protein; designed switch direction (-1 OFF switch, 1 ON switch): -1; higher = weaker reporter binding
Procedure, shortened: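 RNA switches sharing common flanks were transcribed by stalled E. coli RNA polymerase on Illumina chips. A doubling series of SNAP-549-labelled MS2 coat protein, from 0.7 or 1.5 nM to 3 µM, was applied in Tris-HCl pH 7.5 buffer with KCl, MgCl2, BSA, DTT, tRNA and Tween-20. Each step lasted 0.8–1.5 h at the bottom of the series and 10–20 min at the top. Normalised cluster fluorescence was curve-fitted, giving apparent KD as the per-design median over clusters.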

[1] = Eterna round: R95, input ligand: microRNA oligo, concentration not stated
[2] = input ligand: microRNA oligo, concentration not stated
[3] = Eterna round: R95, input ligand: FMN 200 uM
[4] = Eterna round: R95, input ligand: none

Sequence	apparent KD of MS2 coat protein (input ligand: FMN 200 uM)	apparent KD of MS2 coat protein (input ligand: none)	apparent KD of MS2 coat protein [1]	also measured
UUCUACAAGCUGAGAUCCUACAUGAGGAUCACCCAUGUGGUCCGGAACAUUCUGUCACCGGAUCUUGCUCGUCUUGU [salish99_S_TOV1_R5_104] (Eterna round: R97, puzzle: Sensor, turn-off variant 1)	41.9 nM	48.4 nM		
GUGUAGACAGGAUAUGCUUUGAGCAUAUGAGAGUAUGCUCGACAUGAGGAUCACCCAUGUAGAAGGGUCUACAC [LRO-Excl2-02] (puzzle: Exclusion 2)			12.9 nM	
UUUUUUGGGCAAGGAUAUCCUGUGCGGUUCCGGCUCGUGUCUGUUACAUGAGGAUCACCCAUGUGGGAGAAGGUGCCUGCGGUU [Design 85] (Eterna round: R96, puzzle: Exclusion NG 2)	172 nM	34.9 nM		apparent KD of MS2 coat protein [2]: 31.1 nM
UAUUAGCAAGCAAAUGGGUACAUGAGGAUCACCCAUGUGCUCGUCUUAUAAGGUACUGUGACGAAAGUCACGGUACC [Eli 91 v35] (Eterna round: R97, puzzle: Sensor, turn-off variant 1)	24.6 nM	22.5 nM		
AAAUUCAGAGGAUAUGCGCAUAGAUAAGACUUUUUUUUUUAACAUGAGGAUCACCCAUGUAGAAGGCUGUAAAU [Ex2 #52] (Eterna round: R97, puzzle: Exclusion 2)	24 nM	25.5 nM		
GGCCGUAAUAAGGAUAUCACUAGCCUCGGCUAGUGAGAAGGUAUUACAUGAGGAUCACCCAUGUGAUCAGGCCA [E6/3-B2] (Eterna round: R97, puzzle: Exclusion 6)	862 nM	160 nM		
AUAAAACAUGAGGAUCACCCAUGUGAGGAUAUACGACUCCAACCUAACAGCUUGGACCGUAGAAGGCACAAGGG [Exclusion 1 (MOD3.2 Esqu)] (Eterna round: R97, puzzle: Exclusion 1)	137 nM	159 nM		
GCUUGUAGAGGAUAUACGAGGGCCCGAGCGGCGAGAGCCGCACAUGAGGAUCACCCAUGUAGAAGGCUACUAUU [JL-ex2-4.19 ViennaUCT mod] (Eterna round: R97, puzzle: Exclusion 2)	358 nM	133 nM		
ACAUGUUAUCUAGGAUAUUGGACACAUGAGGAUCACCCAUGUACCCGGAGGCUUUACUAUGAGUUCGAGAAGGAGAUGUACAUG [Ex NG2 #71] (Eterna round: R96, puzzle: Exclusion NG 2)	97.9 nM	73.1 nM		apparent KD of MS2 coat protein [2]: 67.6 nM
AAAAUACAUGAGGAUCACCCAUGUUAGGAUAUGCAAAGCCCAGUUAGCUUUUGGGUAGGUAGAAGGGACGGGUA [Reenen] (puzzle: Exclusion 1)			21.5 nM	
GUGUAGUCAGGAUAUACAUAGGAAGAGAAGAGAAGAGAAGGACAUGAGGAUCACCCAUGUAGAAGGGACAGUGU [Excluse me!! 5 - Jieux - Exclusion 2] (puzzle: Exclusion 2)			43.6 nM	
CAAUUCUGAGGAUAUCGAUUUUUGUACAUGAGGAUCACCCAUGUCCUUUUUAUUUAAUCCCGAGAAGGCAGUGUAU [JR_E5_Sub097] (puzzle: Exclusion 5)			23.8 nM	
AAUAACUCAGUGAGGAUAUUUGCGGGUGUUUUCGCAAAGAAGGCACAUGAGGAUCACCCAUGUCAGAGGAGCUA [Eternabot (Original) Solution 24] (Eterna round: R97, puzzle: Brourd's mod of Exclusion 4)	214 nM	120 nM		
AAAAGAAAACGAGGAUAUGCGCGUAACGUACAUCCUCUAGACAUGAGGAUCACCCAUGUAGCGCAGCAGAAGGCGUAAAAGAAA [Orises] (Eterna round: R96, puzzle: Exclusion NG 2)	724 nM	84.3 nM		apparent KD of MS2 coat protein [2]: 75 nM
CUGGUCCGAGGAUAUAUUAUGUGAUACAUGAGGAUCACCCAUGUUAUAUGAUGGAUGUUAAUAGAAGGCGGACUAG [JL-ex5-3.20] (puzzle: Exclusion 5)			109 nM	apparent KD of MS2 coat protein [3]: 109 nM; apparent KD of MS2 coat protein [4]: 184 nM
GGUUGGUGAGGAUAUACAUGAGGAUCACCCAUGUGAGAGAAAGAAGUGAGGAAGAAAAGUAGAAGGCGCUGACG [salish99_ex3_r3_054] (puzzle: Exclusion 3)			40.4 nM	apparent KD of MS2 coat protein [3]: 87.1 nM; apparent KD of MS2 coat protein [4]: 54.2 nM
UAUUAGCAAGUAAGGUCCCACAUGAGGAUCACCCAUGUGCUCGUCUCCUCAGGUACGGAGCGGAAGCUCCCGAUAUG [Sensor-V1 #94] (Eterna round: R97, puzzle: Sensor, turn-off variant 1)	87 nM	102 nM		
CGCCAAAGGAAGGAUAUGCUAGACGAAAGUCUAGCAGAAGGUCCUACAUGAGGAUCACCCAUGUGUCCUAGGCG [Mat - Exclusion 6 - Eli Mod - D10] (Eterna round: R97, puzzle: Exclusion 6)	49.1 nM	46.1 nM		
